Assay results taken from US6051232.

Biological target: wild type RT1.A^a (rat MHC class I antigen) on transfected BUF (RT1^b) Morris hepatoma 7316A cells (rat)
Test: flow cytometry on BUF hepatoma cells transfected with WT-RT1.A^a, FITC rabbit anti-rat Ig

positive staining (percent of cells): > 90%
Substance: R2/15S anti-rat RT1.A^a class I polymorphic monoclonal antibody (tool reagent)
